{
  "source": "patent US20260234222A1",
  "about": "(LEYDEN LABORATORIES B V, published 2026)",
  "binders": {"B1": {"name": "Parental mAb 1 (antibody, V domains shown)", "VH": "QEQLVQSGAEVKKPGASVKVSCKSSGFTFSYFYLHWVRQAPGQGLEWMGIINPRGDGTRYAQKFQGRVTMTRDASTGTLYMELRSLRSEDTAVYYCARGADHGAFDIWGQGTMVTVSS", "VL": "EIVLTQSPGTLSLSPGERATLSCRASQSVRRNYFAWYQQKRGQAPRLLIYDASTRATGIPDRFSGSGSGTDFTLTISRLEPEDFAVYYCQQYDSSPPMYIFGQGTKLEIK", "notes": "also called antibody according to the invention; first parental antibody"}, "B2": {"name": "Parental mAb 2 (antibody, V domains shown)", "VH": "QMQLMQSGAEVKKPGASVTVSCKASGDTFSDYRIHWVRQAPGQGLEWMGRMNPKSGDTNFAQKFQGRVTMTRDMSINTAYMTLSGLTFDDTALYYCASLLIVGGFDPLDDFEVWGQGTMVTISS", "VL": "QSALTQPPSASGSPGQSVTISCSGTSSDVGGYNFVSWYQHHPGKAPKILIYEVTKRPSGVPDRFSGSKSGNTASLTVSGLQAEDEADYYCSSYGGTNNLLFGGGTKLTVL"}, "B3": {"name": "Bispecific 1 (bispecific antibody)", "heavy 1": "not shown", "light 1": "EIVLTQSPGTLSLSPGERATLSCRASQSVRRNYFAWYQQKRGQAPRLLIYDASTRATGIPDRFSGSGSGTDFTLTISRLEPEDFAVYYCQQYDSSPPMYIFGQGTKLEIKSSASTKGPSVFPLAPSSKSTSGGTAALGCLVKDYFPEPVTVSWNSGALTSGVHTFPAVLQSSGLYSLSSVVTVPSSSLGTQTYICNVNHKPSNTKVDKKVEPKSC", "heavy 2": "not shown", "light 2": "QSALTQPPSASGSPGQSVTISCSGTSSDVGGYNFVSWYQHHPGKAPKILIYEVTKRPSGVPDRFSGSKSGNTASLTVSGLQAEDEADYYCSSYGGTNNLLFGGGTKLTVLGQPKAAPSVTLFPPSSEELQANKATLVCLISDFYPGAVTVAWKADSSPVKAGVETTTPSKQSNNKYAASSYLSLTPEQWKSHRSYSCQVTHEGSTVEKTVAPTECS"}},
  "key": {"MERS-CoV Spike antigen [1]": {"target": "T1, MERS-CoV Spike antigen (MERS-CoV, UniProt K9N5Q8 18-1291)", "T1 sequence": "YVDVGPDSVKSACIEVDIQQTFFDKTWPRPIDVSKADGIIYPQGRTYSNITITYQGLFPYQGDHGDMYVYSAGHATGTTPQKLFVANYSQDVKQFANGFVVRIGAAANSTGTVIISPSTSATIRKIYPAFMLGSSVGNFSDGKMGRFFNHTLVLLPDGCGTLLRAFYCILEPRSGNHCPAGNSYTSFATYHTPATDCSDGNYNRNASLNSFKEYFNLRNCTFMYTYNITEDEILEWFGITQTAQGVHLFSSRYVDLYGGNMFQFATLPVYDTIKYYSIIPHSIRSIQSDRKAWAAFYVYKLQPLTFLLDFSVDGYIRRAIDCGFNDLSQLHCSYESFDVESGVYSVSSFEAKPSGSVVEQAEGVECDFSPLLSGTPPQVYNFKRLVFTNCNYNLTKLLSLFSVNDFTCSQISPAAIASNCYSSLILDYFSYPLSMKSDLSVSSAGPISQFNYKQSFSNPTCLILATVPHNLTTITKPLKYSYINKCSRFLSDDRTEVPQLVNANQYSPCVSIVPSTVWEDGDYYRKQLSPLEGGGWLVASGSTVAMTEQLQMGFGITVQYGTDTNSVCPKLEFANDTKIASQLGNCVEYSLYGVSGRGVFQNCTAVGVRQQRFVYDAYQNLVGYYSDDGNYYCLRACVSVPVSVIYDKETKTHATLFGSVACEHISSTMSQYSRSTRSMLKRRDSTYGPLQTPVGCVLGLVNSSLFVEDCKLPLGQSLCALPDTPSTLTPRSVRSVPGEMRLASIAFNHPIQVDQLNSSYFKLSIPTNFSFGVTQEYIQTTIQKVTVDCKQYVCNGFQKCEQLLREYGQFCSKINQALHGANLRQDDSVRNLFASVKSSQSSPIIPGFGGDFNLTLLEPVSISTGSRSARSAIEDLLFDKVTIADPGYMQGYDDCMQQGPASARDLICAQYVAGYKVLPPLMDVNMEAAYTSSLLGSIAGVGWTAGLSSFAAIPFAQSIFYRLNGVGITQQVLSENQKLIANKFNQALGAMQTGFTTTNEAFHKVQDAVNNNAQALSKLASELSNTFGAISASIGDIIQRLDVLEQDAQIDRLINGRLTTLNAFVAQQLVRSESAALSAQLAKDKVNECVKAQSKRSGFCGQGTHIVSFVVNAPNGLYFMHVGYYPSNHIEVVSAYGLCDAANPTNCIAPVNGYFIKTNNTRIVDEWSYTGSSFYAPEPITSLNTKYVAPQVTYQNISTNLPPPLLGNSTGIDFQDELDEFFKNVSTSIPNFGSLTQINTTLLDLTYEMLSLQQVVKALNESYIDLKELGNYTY", "assay": "cell-based or functional assay"}, "SARS-CoV-1 Spike antigen [2]": {"target": "T2, SARS-CoV-1 Spike antigen (SARS-CoV-1, UniProt P59594 14-1190)", "assay": "cell-based or functional assay"}, "SARS-CoV-2 Spike antigen [3]": {"target": "T3, SARS-CoV-2 Spike antigen (SARS-CoV-2, UniProt P0DTC2 14-1208)", "assay": "cell-based or functional assay"}, "SARS-CoV-2 Spike antigen [4]": {"target": "T3, SARS-CoV-2 Spike antigen", "assay": "cell-based or functional assay", "remark": "listed apart in the source"}, "MERS-CoV Spike antigen [5]": {"target": "T1, MERS-CoV Spike antigen", "assay": "cell-based or functional assay", "remark": "listed apart in the source"}, "SARS-CoV-1 Spike antigen [6]": {"target": "T2, SARS-CoV-1 Spike antigen", "assay": "cell-based or functional assay", "remark": "listed apart in the source"}, "SARS-CoV-2 Spike antigen [7]": {"target": "T3, SARS-CoV-2 Spike antigen", "assay": "cell-based or functional assay", "remark": "listed apart in the source"}, "SARS-CoV-1 Spike antigen [8]": {"target": "T2, SARS-CoV-1 Spike antigen", "assay": "cell-based or functional assay", "remark": "listed apart in the source"}, "SARS-CoV-2 Spike antigen [9]": {"target": "T3, SARS-CoV-2 Spike antigen", "assay": "cell-based or functional assay", "remark": "listed apart in the source"}, "hCoV-NL63 Spike antigen [10]": {"target": "T4, hCoV-NL63 Spike antigen (hCoV-NL63, UniProt Q6Q1S2 19-1291)", "T4 sequence": "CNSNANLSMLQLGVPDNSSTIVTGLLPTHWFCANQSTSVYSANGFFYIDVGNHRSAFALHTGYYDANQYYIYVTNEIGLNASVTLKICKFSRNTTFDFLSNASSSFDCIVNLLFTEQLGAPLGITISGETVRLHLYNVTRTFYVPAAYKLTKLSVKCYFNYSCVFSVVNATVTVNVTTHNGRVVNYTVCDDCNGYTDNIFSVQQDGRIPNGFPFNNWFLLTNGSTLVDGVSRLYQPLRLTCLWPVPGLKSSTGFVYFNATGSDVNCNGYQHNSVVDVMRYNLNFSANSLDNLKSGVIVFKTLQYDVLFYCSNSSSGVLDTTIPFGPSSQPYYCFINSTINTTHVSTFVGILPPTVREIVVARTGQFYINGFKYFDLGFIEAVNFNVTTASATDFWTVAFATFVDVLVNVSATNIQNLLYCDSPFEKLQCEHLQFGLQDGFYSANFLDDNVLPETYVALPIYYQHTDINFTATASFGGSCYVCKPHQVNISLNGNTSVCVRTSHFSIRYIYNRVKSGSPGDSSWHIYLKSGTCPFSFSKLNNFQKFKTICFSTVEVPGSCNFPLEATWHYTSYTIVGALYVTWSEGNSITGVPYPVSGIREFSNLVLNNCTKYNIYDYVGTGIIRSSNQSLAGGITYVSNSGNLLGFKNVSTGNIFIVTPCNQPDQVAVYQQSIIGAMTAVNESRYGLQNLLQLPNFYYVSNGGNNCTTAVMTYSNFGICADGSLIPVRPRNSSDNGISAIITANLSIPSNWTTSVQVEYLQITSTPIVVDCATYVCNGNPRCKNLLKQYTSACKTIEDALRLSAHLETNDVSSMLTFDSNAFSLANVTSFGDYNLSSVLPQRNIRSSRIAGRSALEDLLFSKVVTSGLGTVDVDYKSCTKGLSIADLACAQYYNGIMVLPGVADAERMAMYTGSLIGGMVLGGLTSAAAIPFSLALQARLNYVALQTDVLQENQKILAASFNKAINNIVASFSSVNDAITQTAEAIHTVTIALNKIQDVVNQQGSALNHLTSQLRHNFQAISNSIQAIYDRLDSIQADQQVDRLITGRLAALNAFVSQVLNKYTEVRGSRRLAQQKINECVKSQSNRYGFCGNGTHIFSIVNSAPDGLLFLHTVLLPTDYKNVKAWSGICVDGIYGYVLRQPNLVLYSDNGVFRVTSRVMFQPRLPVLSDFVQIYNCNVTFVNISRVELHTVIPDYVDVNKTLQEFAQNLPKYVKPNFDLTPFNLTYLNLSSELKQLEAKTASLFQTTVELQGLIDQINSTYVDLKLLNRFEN", "assay": "cell-based or functional assay"}, "hCoV-NL63 Spike antigen [11]": {"target": "T4, hCoV-NL63 Spike antigen", "assay": "ELISA, Spike antigen coated on plate"}},
  "note": "Read-outs that look alike come from different tables or passages of the source.",
  "data": [
    {"binder": "B1", "values": [
      {"measurement": "Live virus neutralization IC50", "setting": "MERS-CoV Spike antigen [1]", "result": 1.49, "unit": "µg/mL"},
      {"measurement": "Live virus neutralization IC50", "setting": "SARS-CoV-1 Spike antigen [2]", "result": 2.73, "unit": "µg/mL"},
      {"measurement": "Live virus neutralization IC50", "setting": "SARS-CoV-2 Spike antigen [3]", "result": 9.87, "unit": "µg/mL"},
      {"measurement": "Pseudovirion neutralization IC50", "setting": "SARS-CoV-2 Spike antigen [4]", "result": 0.072, "unit": "µg/mL"},
      {"measurement": "Live virus neutralization IC50", "setting": "MERS-CoV Spike antigen [5]", "result": 0.86, "unit": "µg/mL"},
      {"measurement": "Live virus neutralization IC50", "setting": "SARS-CoV-1 Spike antigen [6]", "result": 4.18, "unit": "µg/mL"},
      {"measurement": "Live virus neutralization IC50", "setting": "SARS-CoV-2 Spike antigen [7]", "result": 6.44, "unit": "µg/mL"},
      {"measurement": "Pseudovirion neutralization IC50", "setting": "SARS-CoV-1 Spike antigen [8]", "result": 0.588, "unit": "µg/mL"},
      {"measurement": "Pseudovirion neutralization IC50", "setting": "SARS-CoV-2 Spike antigen [9]", "result": 0.072, "unit": "µg/mL"},
      {"measurement": "Pseudovirion neutralization IC50", "setting": "hCoV-NL63 Spike antigen [10]", "result": "> 250", "unit": "µg/mL"},
      {"measurement": "binding result", "setting": "hCoV-NL63 Spike antigen [11]", "result": "no binding (tested: 10.0-0.000002 nM)"}
    ]},
    {"binder": "B2", "values": [
      {"measurement": "Live virus neutralization IC50", "setting": "MERS-CoV Spike antigen [5]", "result": 11.6, "unit": "µg/mL"},
      {"measurement": "Live virus neutralization IC50", "setting": "SARS-CoV-1 Spike antigen [6]", "result": 5.94, "unit": "µg/mL"}
    ]},
    {"binder": "B3", "values": [
      {"measurement": "Live virus neutralization IC50", "setting": "MERS-CoV Spike antigen [5]", "result": 1.32, "unit": "µg/mL"},
      {"measurement": "Live virus neutralization IC50", "setting": "SARS-CoV-1 Spike antigen [6]", "result": 6.67, "unit": "µg/mL"}
    ]}
  ]
}
